This is an account of results in article PMC5501846, “X-Ray snapshots of a pyridoxal enzyme: a catalytic mechanism involving concerted [1,5]-hydrogen sigmatropy in methionine γ-lyase” (Scientific Reports, 2017).

Data set [1] has as its target T1, EhMGL1 (Entamoeba histolytica, UniProt Q86D28).
T1 construct: gene metg; homotetramer
T1 sequence (Q86D28 1-389): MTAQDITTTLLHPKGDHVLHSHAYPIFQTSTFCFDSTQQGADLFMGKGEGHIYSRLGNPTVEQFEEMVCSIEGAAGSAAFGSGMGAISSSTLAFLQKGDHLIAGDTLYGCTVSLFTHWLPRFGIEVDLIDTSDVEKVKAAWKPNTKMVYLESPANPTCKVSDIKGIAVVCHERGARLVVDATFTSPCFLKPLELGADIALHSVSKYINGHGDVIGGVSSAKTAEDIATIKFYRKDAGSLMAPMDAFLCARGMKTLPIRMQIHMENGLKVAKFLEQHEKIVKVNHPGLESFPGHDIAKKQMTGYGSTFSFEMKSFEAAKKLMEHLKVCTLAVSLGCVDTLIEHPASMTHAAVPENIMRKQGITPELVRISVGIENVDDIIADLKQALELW
Put plainly: X-ray crystallography of methionine-soaked crystals. The class given is binding. The settings on record: covalent Schiff base with PLP in intermediates; Michaelis complex also seen; 50 mM L-methionine soak 30–120 s, 293 K.

The target of data set [2] is T1, EhMGL1. Put plainly: X-ray crystallography, […] Å. The class given is binding. The following applies: covalent, Schiff base with Lys205; substrate-free enzyme.
Data set [3] deals with L-methionine γ-lyase from Entamoeba histolytica (EhMGL1) (Entamoeba histolytica). Kind of data set: crystal structure; hanging-drop vapor diffusion at 277 K, 1.8 M ammonium sulfate, 0.1 M cacodylate pH 6.6, 0.1 M lithium citrate, 100 μM PLP; substrate-free and methionine-soaked crystals (50 mM L-methionine, 30-120 s, 293 K); tetramer of two catalytic dimers in the crystal.
Substrate in data set [4]: COCC[C@H](N)C(=O)O
Put plainly: purified protein. The following applies: 100 mM phosphate pH 7.0, 1 mM DTT, 20 μM PLP, 37 °C.

Substrate in data set [5]: C[Se]CC[C@H](N)C(=O)O
Put plainly: purified protein. The settings on record: 100 mM phosphate pH 7.0, 1 mM DTT, 20 μM PLP, 37 °C.

With `CSCC[C@H](N)C(=O)O` [CH3S, L-methionine], in data set [1], the “X-ray crystallography of methionine-soaked crystals” value is given as “Crystals of EhMGL1 complexed with reaction intermediates were prepared by soaking crystals”.

Consider `Cc1ncc(COP(=O)(O)O)c(C=O)c1O` [pyridoxal 5′-phosphate], for which the “X-ray crystallography, 1.97 Å” value in data set [2] was “the active site binds a PLP cofactor that forms a Schiff base”.

By stoichiometry N is commonly meant the number of molecules, sites or subunits per partner or assembly. Molecule “L-methionine γ-lyase from Entamoeba histolytica (EhMGL1) (enzyme)” had a stoichiometry N in data set [3] of 4.

B1: EhMGL1 (Entamoeba histolytica) (protein)
chain: MTAQDITTTLLHPKGDHVLHSHAYPIFQTSTFCFDSTQQGADLFMGKGEGHIYSRLGNPTVEQFEEMVCSIEGAAGSAAFGSGMGAISSSTLAFLQKGDHLIAGDTLYGCTVSLFTHWLPRFGIEVDLIDTSDVEKVKAAWKPNTKMVYLESPANPTCKVSDIKGIAVVCHERGARLVVDATFTSPCFLKPLELGADIALHSVSKYINGHGDVIGGVSSAKTAEDIATIKFYRKDAGSLMAPMDAFLCARGMKTLPIRMQIHMENGLKVAKFLEQHEKIVKVNHPGLESFPGHDIAKKQMTGYGSTFSFEMKSFEAAKKLMEHLKVCTLAVSLGCVDTLIEHPASMTHAAVPENIMRKQGITPELVRISVGIENVDDIIADLKQALELW
A word on the Km: it is the concentration of substrate that gives half-maximal velocity. One may read the kcat as the number of substrate molecules converted per active site and unit of time at saturation. What is called kcat/Km is the second-order rate constant that governs catalysis at low substrate concentration. As to B1, in data set [4], the Km amounted to 2500 ± 240 µM, the catalytic constant (kcat) stood at 1.04 ± 0.35 s⁻¹ and the kcat/Km turned out to be 420 ± 150 M⁻¹ s⁻¹. Further, the Km in data set [5] stood at 410 ± 70 µM.
